Assay [1] concerns the target human EWI2 wild-type with palmitate-free cytoplasmic cysteines (after hydroxylamine or 2BP) (human) (UniProt Q969P0). Briefly: cross-linking.
Assay [2] has the same target. The assay is described as follows: cross-linking. This is another data set of the same source.

Where two headings read alike, the source gives them in different places.

In paper PMC4141501 one finds percent of EWI2 molecules dimerized and stoichiometry N data, which are given here for one substance.

Consider “human EWI2 wild-type with palmitate-free cytoplasmic cysteines (after hydroxylamine or 2BP) (from UniProt Q969P0 28-613) (natural protein)”, for which, in assay [1], the percent of EWI2 molecules dimerized is 11% and the stoichiometry N (in general, the number of molecules, sites or subunits per partner or assembly) amounted to 2. In assay [2], this substance had a percent of EWI2 molecules dimerized of 78% and a stoichiometry N of 2.
